{"source": "paper PMC3518024", "target": "T1, AaNusB (Aquifex aeolicus, UniProt O66530 1-148)", "T1 sequence": "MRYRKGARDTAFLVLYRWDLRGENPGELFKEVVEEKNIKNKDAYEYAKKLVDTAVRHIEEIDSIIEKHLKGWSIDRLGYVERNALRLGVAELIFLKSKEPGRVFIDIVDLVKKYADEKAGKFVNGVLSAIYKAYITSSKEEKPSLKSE", "experiment": "X-ray crystallography", "data": [{"binder": "AaBoxA 12-mer RNA self-duplex (supercoil-forming) (dsRNA) RNA 1: GGCUCCUUGGCA RNA 2: GGCUCCUUGGCA", "values": [{"measurement": "binding result", "value": "binds"}]}]}
